Source: US6835824

Target: nine-person peanut-specific IgE antibody pool (pooled serum of patients with AD and positive peanut challenge)
Test: IgE ELISA inhibition, crude peanut coated, pooled serum

B1: Ara h I, 63.5 kD peanut allergen, native, purified from Florunner peanut extract (protein, Arachis hypogaea, UniProt P43238 85-626, looked up)
chain: RSPPGERTRGRQPGDYDDDRRQPRREEGGRWGPAGPREREREEDWRQPREDWRRPSHQQPRKIRPEGREGEQEWGTPGSHVREETSRNNPFYFPSRRFSTRYGNQNGRIRVLQRFDQRSRQFQNLQNHRIVQIEAKPNTLVLPKHADADNILVIQQGQATVTVANGNNRKSFNLDEGHALRIPSGFISYILNRHDNQNLRVAKISMPVNTPGQFEDFFPASSRDQSSYLQGFSRNTLEAAFNAEFNEIRRVLLEENAGGEQEERGQRRWSTRSSENNEGVIVKVSKEHVEELTKHAKSVSKKGSEEEGDITNPINLREGEPDLSNNFGKLFEVKPDKKNPQLQDLDMMLTCVEIKEGALMLPHFNSKAMVIVVVNKGTGNLELVAVRKEQQQRGRREEEEDEDEEEEGSNREVRRYTARLKEGDVFIMPAAHPVAINASSELHLLGFGINAENNHRIFLAGDKDNVIDQIEKQAKDLAFPGSGEQVEKLIKNQKESHFVSARPQSQSQSPSSPEKESPEKEDQEEENQGGKGPLLSILKAFN
modifications: glycoprotein
IC50: 5.5 ng/mL
